These results are taken from patent US20240010696A1 (Pfizer, published 2024).

Residue numbers refer to the chain shown, from its start.

What is called Kd is a measure of binding affinity in units of concentration. Low values mean a tighter complex, high ones a looser complex. A word on the koff: it is the first-order rate constant of dissociation. Low readings indicate slow dissociation, high ones fast dissociation. For orientation: kon means a measure of how fast the partners come together. A high value points to faster complex formation.

One assay has as its target T1, human PD1 (human, UniProt Q15116 25-167, limits assumed).
T1 construct: the construct is not described; also called hPD1; programmed cell death protein 1
The assay is described as follows: binding kinetics to hPD1, method not stated.

The target of assay [1] is human IL-12 receptor on cells (human, UniProt P42701 24-662; Q99665 24-862). The assay is described as follows: cell-based or functional assay.
human IL-12 receptor on cells, sequence (Q99665 24-862, chain 2 of 2, other chains not shown): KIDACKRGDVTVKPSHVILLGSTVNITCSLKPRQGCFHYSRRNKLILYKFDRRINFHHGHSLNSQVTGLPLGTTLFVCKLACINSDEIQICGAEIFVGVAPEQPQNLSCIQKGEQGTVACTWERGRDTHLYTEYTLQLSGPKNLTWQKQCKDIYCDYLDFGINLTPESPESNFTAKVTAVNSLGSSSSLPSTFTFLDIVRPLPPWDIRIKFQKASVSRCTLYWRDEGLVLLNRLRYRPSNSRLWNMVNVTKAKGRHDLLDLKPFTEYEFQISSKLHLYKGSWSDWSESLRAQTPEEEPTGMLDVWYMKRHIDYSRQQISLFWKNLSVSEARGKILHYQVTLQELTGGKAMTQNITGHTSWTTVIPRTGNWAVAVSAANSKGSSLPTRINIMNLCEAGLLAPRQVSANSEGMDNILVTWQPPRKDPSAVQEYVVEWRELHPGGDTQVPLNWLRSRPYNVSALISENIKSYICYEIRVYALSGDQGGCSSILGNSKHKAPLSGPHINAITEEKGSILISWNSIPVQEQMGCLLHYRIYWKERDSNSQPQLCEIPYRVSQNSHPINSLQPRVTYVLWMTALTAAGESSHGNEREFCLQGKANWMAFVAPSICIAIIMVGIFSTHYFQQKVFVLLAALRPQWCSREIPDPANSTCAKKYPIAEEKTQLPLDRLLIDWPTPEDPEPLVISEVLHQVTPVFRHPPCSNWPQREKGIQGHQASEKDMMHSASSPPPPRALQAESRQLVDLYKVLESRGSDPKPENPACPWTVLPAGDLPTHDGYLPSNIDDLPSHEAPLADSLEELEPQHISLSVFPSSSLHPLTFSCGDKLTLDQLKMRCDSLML

T1 sequence (Q15116 25-167 limits assumed): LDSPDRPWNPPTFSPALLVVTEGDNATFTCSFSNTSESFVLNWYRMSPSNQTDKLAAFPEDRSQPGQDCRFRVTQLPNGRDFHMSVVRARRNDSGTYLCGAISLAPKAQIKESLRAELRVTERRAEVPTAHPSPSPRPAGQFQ

B1: TPP-76868 (antibody, V domains shown)
VH: EVQLVESGGGLVQPGGSLRLSCAASGFSFGDFDMRWFRQAPGKGLEWVGLIKSRAYLEATEFAASVEGRFTISRDDAKNSAYLQMNSLRAEDTAVYYCTRDSYSSGLLDYWGQGTLVTVSS
VL: DIQMTQSPSSLSASVGDRVTITCRASQGISNYLAWFQQKPGKAPKRLIYAAQIPGSGVPSRFSGSGSGTDFTLTISSLQPEDFATYYCLQHYSYPLTFGGGTKVEIK
As to B1, in the assay with human PD1, the Kd was 3 nM, the koff worked out at 0.000391 s⁻¹, the kon stood at 135000 M⁻¹ s⁻¹ and the t1/2 is 1770 s (not printed; inferred from ln2/kd).

B2: TPP-68807 (antibody, V domains shown)
VH: B1 VH with R54K, L57R, E58Y
VL: B1 VL with Q52S, Y92K
B2: in the assay with human PD1, the Kd came out at 3 nM, the koff worked out at 0.000251 s⁻¹, the kon came to 78500 M⁻¹ s⁻¹ and the t1/2 is 2760 s (not printed; inferred from ln2/kd).

B3: TPP-77658 (antibody, V domains shown)
VH: B1 VH with L50T, S102A
VL: B1 VL
For the molecule B3, in the assay with human PD1, the Kd was 7 nM, the off-rate (koff) is 0.000765 s⁻¹, the kon is 109000 M⁻¹ s⁻¹ and the t1/2 was 906 s (not printed; inferred from ln2/kd).

B4: H10/TPP-76868 fusion protein (other)
heavy 1: EVQLVESGGGLVQPGGSLRLSCAASGFSFGDFDMRWFRQAPGKGLEWVGLIKSRAYLEATEFAASVEGRFTISRDDAKNSAYLQMNSLRAEDTAVYYCTRDSYSSGLLDYWGQGTLVTVSSASTKGPSVFPLAPSSKSTSGGTAALGCLVKDYFPEPVTVSWNSGALTSGVHTFPAVLQSSGLYSLSSVVTVPSSSLGTQTYICNVNHKPSNTKVDKKVEPKSCDKTHTCPPCPAPEAAGAPSVFLFPPKPKDTLMISRTPEVTCVVVDVSHEDPEVKFNWYVDGVEVHNAKTKPREEQYNSTYRVVSVLTVLHQDWLNGKEYKCKVSNKALPAPIEKTISKAKGQPREPQVYTLPPCREEMTKNQVSLSCAVKGFYPSDIAVEWESNGQPENNYKTTPPVLDSDGSFFLVSKLTVDKSRWQQGNVFSCSVMHEALHNHYTQKSLSLSPGK
heavy 2: EVQLVESGGGLVQPGGSLRLSCAASGFSFGDFDMRWFRQAPGKGLEWVGLIKSRAYLEATEFAASVEGRFTISRDDAKNSAYLQMNSLRAEDTAVYYCTRDSYSSGLLDYWGQGTLVTVSSASTKGPSVFPLAPSSKSTSGGTAALGCLVKDYFPEPVTVSWNSGALTSGVHTFPAVLQSSGLYSLSSVVTVPSSSLGTQTYICNVNHKPSNTKVDKKVEPKSCDKTHTCPPCPAPEAAGAPSVFLFPPKPKDTLMISRTPEVTCVVVDVSHEDPEVKFNWYVDGVEVHNAKTKPREEQYNSTYRVVSVLTVLHQDWLNGKEYKCKVSNKALPAPIEKTISKAKGQPREPQVCTLPPSREEMTKNQVSLWCLVKGFYPSDIAVEWESNGQPENNYKTTPPVLDSDGSFFLYSKLTVDKSRWQQGNVFSCSVMHEALHNHYTQKSLSLSPGSGGGGSGGGGSGGGGRNLPVATPDPGMFPCLHHSQNLLRAVSNMLQKARQTLEFYPCTSEEIDHEDITKDKTSTVEACLPLELTKNESCLNSRETSFITNGSCLASRKTSFMMALCLSSIYEDLKMYQVEFKTMNAKLLMDPKRQIFLDQNMLAVIDELMQALNFNSETVPQKSSLEEPDFAKTKIKLCILLHAFRIRAVTIDRVMSYLNAS
light: DIQMTQSPSSLSASVGDRVTITCRASQGISNYLAWFQQKPGKAPKRLIYAAQIPGSGVPSRFSGSGSGTDFTLTISSLQPEDFATYYCLQHYSYPLTFGGGTKVEIKRTVAAPSVFIFPPSDEQLKSGTASVVCLLNNFYPREAKVQWKVDNALQSGNSQESVTEQDSKDSTYSLSSTLTLSKADYEKHKVYACEVTHQGLSSPVTKSFNRGEC
chain: IWELKKDVYVVELDWYPDAPGEMVVLTCDTPEEDGITWTLDQSSEVLGSGKTLTIQVKEFGDAGQYTCHKGGEVLSHSLLLLHKKEDGIWSTLILKDQKEPKNKTFLRCEAKNYSGRFTCWWLTTISTDLTFSVKSSRGSSDPQGVTCGAATLSAERVRGDNKEYEYSVECQEDSACPAAEESLPIEVMVDAVHKLKYENYTSSFFIRDIIKPDPPKNLQLKPLKNSRQVEVSWEYPDTWSTPHSYFSLTFCVQVQGGGGDRVFTDKTSATVICRKNASISVRAQDRYYSSSWSEWASVPCS
Consider B4, for which, in assay [1], the “CD4 T cell activation assay PSTAT4 EC50 (ug/ml); Donor #1” value amounted to 0.139 µg/mL and the “CD4 T cell activation assay PSTAT4 EC50 (ug/ml); Donor #2” value came out at 0.998 µg/mL.

B5: H10/TPP-77658 fusion protein (other)
heavy 1: B4 heavy 1 with L50T, S102A
heavy 2: B4 heavy 2 with L50T, S102A
light: B4 light
chain: B4 chain
As to B5, in assay [1], the “CD4 T cell activation assay PSTAT4 EC50 (ug/ml); Donor #1” value turned out to be 0.235 µg/mL and the “CD4 T cell activation assay PSTAT4 EC50 (ug/ml); Donor #2” value was found to be 1.54 µg/mL.
